Measured values published in patent US10513547B2, “Peptides and combination of peptides and scaffolds thereof for use in immunotherapy against colorectal carcinoma (CRC) and other cancers” (Immatics Biotechnologies GmbH, priority 2015, dated 2019).

Target: HLA-A*02:01 (Homo sapiens, UniProt P04439, D140Y/D185E/D98H/E176V/E277Q/G131W/G231S/I119V/I121R/I166T/I218V/L300P/L318F/N151K/N90K/P208A/P217A/Q86G/Q94H/R138H/R169H/T345S)
Test: MHC binding assay (UV-ligand exchange, beta2m ELISA, peptide exchange yield)
Conditions: binding to HLA-A*02:01
From the text: Candidate peptides for T cell based therapies according to the present invention were further tested for their MHC binding capacity (affinity). The individual peptide-MHC complexes were produced by UV-ligand exchange, where a UV-sensitive peptide is cleaved upon UV-irradiation, and exchanged with the peptide of interest as analyzed. Only peptide candidates that can effectively bind and stabilize the peptide-receptive MHC molecules prevent dissociation of the MHC complexes. To determine the yield of the exchange reaction, an ELISA was performed based on the detection of the light chain ([…]) of stabilized MHC complexes. The assay was performed as generally described in Rodenko et al. (Rodenko et al., 2006).
96 well MAXISorp plates (NUNC) were coated over night with 2 ug/ml streptavidin in PBS at room temperature, washed 4× and blocked for 1 h at 37° C. in 2% BSA containing blocking buffer. Refolded HLA-A*02:01/MLA-001 monomers served as standards, covering the range of 15-500 ng/ml. Peptide-MHC monomers of the UV-exchange reaction were diluted 100 fold in blocking buffer. Samples were incubated for 1 h at 37° C., washed four times, incubated with 2 ug/ml HRP conjugated anti-β2m for 1 h at 37° C., washed again and detected with TMB solution that is stopped with […]. Absorption was measured at 450 nm. Candidate peptides that show a high exchange yield (preferably higher than 50%, most preferred higher than 75%) are generally preferred for a generation and production of antibodies or fragments thereof, and/or T cell receptors or fragments thereof, as they show sufficient avidity to the MHC molecules and prevent dissociation of the MHC complexes.

Peptide exchange (MHC class I binding score, peptide exchange yield) | Substance
“++” (≥20% = ++) | 119 (ILYQTVTGL; listed as Homo sapiens) [compound 119]
“++” (≥20% = ++) | 120 (VLYEGVDEV; listed as Homo sapiens) [compound 120]
“+++” (≥50 = +++) | 121 (SLAPNIISQL; listed as Homo sapiens) [compound 121]
“+++” (≥50 = +++) | 122 (SLMGMVLKL; listed as Homo sapiens) [compound 122]
“++++” (≥75% = ++++) | 125 (KLGDFGLLVEL; listed as Homo sapiens) [compound 125]
“+++” (≥50 = +++) | 126 (TLAKYLMEL; listed as Homo sapiens) [compound 126]
“++” (≥20% = ++) | 128 (MLDDRAYLV; listed as Homo sapiens) [compound 128]
“+++” (≥50 = +++) | 129 (VLIDVLKEL; listed as Homo sapiens) [compound 129]
“++” (≥20% = ++) | 130 (GLGGSQLIDTHL; listed as Homo sapiens) [compound 130]
“++” (≥20% = ++) | 131 (KLLDVVHPA; listed as Homo sapiens) [compound 131]
“++++” (≥75% = ++++) | 134 (GVAGGSILKGV; listed as Homo sapiens) [compound 134]
“++” (≥20% = ++) | 135 (KLQEEIPVL; listed as Homo sapiens) [compound 135]
“+++” (≥50 = +++) | 137 (QLTEIKPLL; listed as Homo sapiens) [compound 137]
“+++” (≥50 = +++) | 138 (KQFEGTVEI; listed as Homo sapiens) [compound 138]
“+++” (≥50 = +++) | 139 (VLLNEILEQV; listed as Homo sapiens) [compound 139]
“+++” (≥50 = +++) | 140 (LLNEILEQV; listed as Homo sapiens) [compound 140]
“+++” (≥50 = +++) | 143 (KLSDVWKEL; listed as Homo sapiens) [compound 143]
“+++” (≥50 = +++) | 144 (LLNDRIWLA; listed as Homo sapiens) [compound 144]
“+++” (≥50 = +++) | 145 (LLLEVVKQV; listed as Homo sapiens) [compound 145]
“++” (≥20% = ++) | 146 (ALSDETWGL; listed as Homo sapiens) [compound 146]
“++++” (≥75% = ++++) | 147 (TLTELRAFL; listed as Homo sapiens) [compound 147]
“+++” (≥50 = +++) | 148 (RLLENMTEVV; listed as Homo sapiens) [compound 148]
“+++” (≥50 = +++) | 149 (YQFDKVGILTL; listed as Homo sapiens) [compound 149]
“+++” (≥50 = +++) | 151 (SAQGSDVSLTACKV; listed as Homo sapiens) [compound 151]
“++” (≥20% = ++) | 152 (KLLAVIHEL; listed as Homo sapiens) [compound 152]

Peptide exchange (MHC class I binding score, peptide exchange yield) | Substance
“+++” (≥50 = +++) | 153 (ILFSEDSTKLFV; listed as Homo sapiens) [compound 153]
“+++” (≥50 = +++) | 154 (KLPSETIFVGC; listed as Homo sapiens) [compound 154]
“+++” (≥50 = +++) | 155 (RLLGEEVVRV; listed as Homo sapiens) [compound 155]
“++++” (≥75% = ++++) | 156 (SLMMTIINL; listed as Homo sapiens) [compound 156]
“+++” (≥50 = +++) | 157 (SLIERDLKL; listed as Homo sapiens) [compound 157]
“+++” (≥50 = +++) | 158 (GLLDPSVFHV; listed as Homo sapiens) [compound 158]
“++” (≥20% = ++) | 159 (VLVDDDGIKVV; listed as Homo sapiens) [compound 159]
“+++” (≥50 = +++) | 160 (KLLEFDQLQL; listed as Homo sapiens) [compound 160]
“+++” (≥50 = +++) | 161 (FLKNELDNV; listed as Homo sapiens) [compound 161]
“+++” (≥50 = +++) | 162 (KLMDYIDEL; listed as Homo sapiens) [compound 162]
“+++” (≥50 = +++) | 163 (RLLHEVQEL; listed as Homo sapiens) [compound 163]
“++++” (≥75% = ++++) | 164 (KMLDEILLQL; listed as Homo sapiens) [compound 164]
“++++” (≥75% = ++++) | 165 (RLLDFPEAMVL; listed as Homo sapiens) [compound 165]
“+++” (≥50 = +++) | 166 (GLLEARGILGL; listed as Homo sapiens) [compound 166]
“+++” (≥50 = +++) | 167 (SVIDHIHLISV; listed as Homo sapiens) [compound 167]
“+++” (≥50 = +++) | 168 (GLIRFPLMTI; listed as Homo sapiens) [compound 168]
“+++” (≥50 = +++) | 169 (YLAHFIEGL; listed as Homo sapiens) [compound 169]
“+++” (≥50 = +++) | 170 (ALAGGITMV; listed as Homo sapiens) [compound 170]
“++” (≥20% = ++) | 171 (RLQETEGMVAV; listed as Homo sapiens) [compound 171]
“+++” (≥50 = +++) | 172 (LLLDTVTMQV; listed as Homo sapiens) [compound 172]
“+++” (≥50 = +++) | 173 (KLGDLMVLL; listed as Homo sapiens) [compound 173]
“++++” (≥75% = ++++) | 174 (ILLDDNMQIRL; listed as Homo sapiens) [compound 174]
“+++” (≥50 = +++) | 175 (TLLGGKEAQALGV; listed as Homo sapiens) [compound 175]
“++” (≥20% = ++) | 176 (RTLDKVLEV; listed as Homo sapiens) [compound 176]
“+++” (≥50 = +++) | 177 (ALLQGAIESV; listed as Homo sapiens) [compound 177]
